The target in experiment [1] is post-termination RF1-70S complex (Cy5.5-RF1 bound to the non-rotated 70S ribosome) (not stated | E. coli) (UniProt P0A7I0). Kind of experiment: single-molecule fluorescence in zero-mode waveguides (factor occupancy with intersubunit FRET); Cy5-RF3 occupancy on the Cy5.5-RF1-bound non-rotated ribosome with 50% GDP (1:1 ratio of GTP:GDP); triple exponential fit.
For experiment [2] the target is unchanged. The experiment is described as follows: single-molecule fluorescence in zero-mode waveguides (factor occupancy with intersubunit FRET); pre-elongated immobilised 70S with the stop codon in the A site; 75 nM Cy5-RF3, 20 nM Cy5.5-RF1, 4 mM GDPCP, polymix buffer, 20°C, no RRF or EF-G.
Experiment [3] concerns the target 70S ribosome on biotinylated mRNA with the UAA stop codon in the A site (no release factor bound) (E. coli) (UniProt P0AG67). The experiment is described as above.
Experiment [4] shares this target. Kind of experiment: single-molecule fluorescence in zero-mode waveguides (factor occupancy with intersubunit FRET); as a4 (MF-UAA mRNA, Cy5.5-RF1, Cy5-RF3, GTP) but at 12°C.
Experiment [5] concerns the target post-termination RF1-70S complex (Cy5.5-RF1 bound to the non-rotated 70S ribosome) (not stated | E. coli) (UniProt P0A7I0). Kind of experiment: single-molecule fluorescence in zero-mode waveguides (factor occupancy with intersubunit FRET); ribosome immobilised through biotinylated mRNA; Cy5.5-RF1 and Cy5-RF3 tracked together, 4 mM GTP, Tris-based polymix buffer pH 7.5, 20°C.

In experiment [6] the target is 70S ribosome on biotinylated mRNA with the UAA stop codon in the A site (no release factor bound) (E. coli) (UniProt P0AG67). Described as above.
Experiment [7] concerns the target post-termination RF1-70S complex (Cy5.5-RF1 bound to the non-rotated 70S ribosome) (not stated | E. coli) (UniProt P0A7I0). Kind of experiment: single-molecule fluorescence in zero-mode waveguides (factor occupancy with intersubunit FRET); pre-elongated immobilised 70S with the stop codon in the A site; 75 nM Cy5-RF3, 20 nM Cy5.5-RF1, 4 mM GDP, polymix buffer, 20°C.

The target in experiment [8] is 70S ribosome on biotinylated mRNA with the UAA stop codon in the A site (no release factor bound) (E. coli) (UniProt P0AG67). Kind of experiment: single-molecule fluorescence in zero-mode waveguides (factor occupancy with intersubunit FRET); Cy5.5-RF1 and Cy5-RF3 with GTP and the antimicrobial peptide Api137 added; occupancy limited by Cy5.5 photobleaching and movie time (6 min).

Experiment [9] addresses 70S ribosome with bound wild-type (dark) RF3, rotated post-termination state (E. coli MG1655 K12 | E. coli) (UniProt P0A7I4). Kind of experiment: single-molecule fluorescence in zero-mode waveguides (factor occupancy with intersubunit FRET); ribosome immobilised through biotinylated MF-UAA mRNA on Neutravidin; Cy5.5-RF1 or Cy5.5-RF2 with 0-200 nM dark RF3, RRF, EF-G, 4 mM GTP; Tris-based polymix buffer pH 7.5; 20°C.

Experiment [10] deals with 70S ribosome on biotinylated mRNA with the UAA stop codon in the A site (no release factor bound) (E. coli) (UniProt P0AG67). The experiment is described as above.
Experiment [11] addresses 70S ribosome with bound Cy5-RF3, rotated post-termination state (E. coli MG1655 K12 | E. coli) (UniProt P0A7I4). The experiment is described as follows: single-molecule fluorescence in zero-mode waveguides (factor occupancy with intersubunit FRET); pre-elongated immobilised 70S with the stop codon in the A site; 75 nM Cy5-RF3, 20 nM Cy5.5-RF1, 4 mM GDPCP, polymix buffer, 20°C, no RRF or EF-G.

For experiment [12] the target is unchanged. The experiment is described as follows: single-molecule fluorescence in zero-mode waveguides (factor occupancy with intersubunit FRET); as a4 (MF-UAA mRNA, Cy5.5-RF1, Cy5-RF3, GTP) but at 12°C.
The target is the same in experiment [13]. The experiment is described as follows: single-molecule fluorescence in zero-mode waveguides (factor occupancy with intersubunit FRET); ribosome immobilised through biotinylated mRNA; Cy5.5-RF1 and Cy5-RF3 tracked together, 4 mM GTP, Tris-based polymix buffer pH 7.5, 20°C.
The target in experiment [14] is 70S ribosome with bound wild-type (dark) RF3, rotated post-termination state (E. coli MG1655 K12 | E. coli) (UniProt P0A7I4). The experiment is described as follows: single-molecule fluorescence in zero-mode waveguides (factor occupancy with intersubunit FRET); as a1 with Cy5.5-RF1 and dark RF3, 4 mM GTP, but at 30°C.
In experiment [15] the target is 70S ribosome on biotinylated mRNA with the UAA stop codon in the A site (no release factor bound) (E. coli) (UniProt P0AG67). The experiment is described as above.
Experiment [16] has as its target 70S ribosome with bound wild-type (dark) RF3, rotated post-termination state (E. coli MG1655 K12 | E. coli) (UniProt P0A7I4). The experiment is described as follows: single-molecule fluorescence in zero-mode waveguides (factor occupancy with intersubunit FRET); Cy5.5-RF1 in the absence of RRF, with and without RF3; first-bound and rebound RF1 events on the immobilised ribosome (Supplementary Figure S2); temperature not given.

Experiment [17] deals with 70S ribosome on biotinylated mRNA with the UAA stop codon in the A site (no release factor bound) (E. coli) (UniProt P0AG67). The description is as above.

Turning to “Cy5-RF3 (ybbR-tagged RF3 labelled with Cy5-CoA) (from UniProt P0A7I4 1-529) (natural protein)”, in experiment [1], the dissociation rate of the slowest phase of a triple exponential came out at 0.3 s⁻¹. The k3off1 (sampling mode, fast phase of a double exponential) stood at 1.1 s⁻¹ in experiment [2], 1.3 s⁻¹ in experiment [5] and 4.6 s⁻¹ in [7]. Moreover, the k3off2 (sampling mode, slow phase of a double exponential) was determined as 0.18 s⁻¹ in experiment [2], 0.3 s⁻¹ in [5] and 0.25 s⁻¹ in experiment [7]. The kon in [2] was found to be 2e+06 M⁻¹ s⁻¹; in experiment [5] it was 2.3e+06 M⁻¹ s⁻¹; in experiment [7], 2e+06 M⁻¹ s⁻¹. The koff in [3] is 0.0164 s⁻¹; in [6], 4 s⁻¹. The fold slow-down of dissociation at 12°C against 20°C in [4] was found to be 21 fold.
“Cy5.5-labeled RF1 (from UniProt P0A7I0 1-360) (natural protein)” returned an occupancy time with Api137 (photobleaching and movie-time limit) in [8] of 300 s. Also, in experiment [9], the k1RD+ (single RF1 binding event in the presence of RRF) was determined as 0.87 s⁻¹ and the off-rate constant (koff) came out at 0.76 s⁻¹. In [10], this substance yielded a kiAR- (spontaneous and simultaneous dissociation and ribosome rotation from the post-termination ribosome) of 0.027 s⁻¹; a kon of 2.1e+07 M⁻¹ s⁻¹; a mean dwell time on the terminating ribosome in the absence of RF3 (tau 1BD-) of 66 s. Besides, in [11], the koff is 0.14 s⁻¹. Further, the fold slow-down of dissociation at 12°C against 20°C in [12] was 2.6 fold. The substance further registered a koff in [13] of 0.69 s⁻¹. In addition, the off-rate constant (koff) in [14] was 2.5 s⁻¹. Further, the kiAR- (spontaneous and simultaneous dissociation and ribosome rotation from the post-termination ribosome) in [15] came out at 0.072 s⁻¹. In addition, in [16], the k1RD+ (first-bound RF1, no RRF) amounted to 0.77 s⁻¹ and the k1RD+ (rebound RF1, no RRF) came out at 1 s⁻¹. In experiment [17], this substance returned a kiAR- (first-bound ribosomes, no RRF) of 0.04 s⁻¹ and a kiAR- (rebound ribosomes, no RRF) of 0.08 s⁻¹.
In the case of “Cy5.5-labeled RF2 (from UniProt P07012 1-365) (natural protein)”, in experiment [9], the off-rate (koff) was determined as 3.5 s⁻¹. In experiment [10], the kiAR- (spontaneous and simultaneous dissociation and ribosome rotation from the post-termination ribosome) amounted to 0.04 s⁻¹; the mean dwell time on the terminating ribosome in the absence of RF3 (tau 2BD-) was determined as 38 s.

The values are drawn from publication PMC10287982.
